Target: T1, Full-length wild-type rat TRPV2 (transient receptor potential vanilloid 2) (rat), Q9WUD2
T1 chain: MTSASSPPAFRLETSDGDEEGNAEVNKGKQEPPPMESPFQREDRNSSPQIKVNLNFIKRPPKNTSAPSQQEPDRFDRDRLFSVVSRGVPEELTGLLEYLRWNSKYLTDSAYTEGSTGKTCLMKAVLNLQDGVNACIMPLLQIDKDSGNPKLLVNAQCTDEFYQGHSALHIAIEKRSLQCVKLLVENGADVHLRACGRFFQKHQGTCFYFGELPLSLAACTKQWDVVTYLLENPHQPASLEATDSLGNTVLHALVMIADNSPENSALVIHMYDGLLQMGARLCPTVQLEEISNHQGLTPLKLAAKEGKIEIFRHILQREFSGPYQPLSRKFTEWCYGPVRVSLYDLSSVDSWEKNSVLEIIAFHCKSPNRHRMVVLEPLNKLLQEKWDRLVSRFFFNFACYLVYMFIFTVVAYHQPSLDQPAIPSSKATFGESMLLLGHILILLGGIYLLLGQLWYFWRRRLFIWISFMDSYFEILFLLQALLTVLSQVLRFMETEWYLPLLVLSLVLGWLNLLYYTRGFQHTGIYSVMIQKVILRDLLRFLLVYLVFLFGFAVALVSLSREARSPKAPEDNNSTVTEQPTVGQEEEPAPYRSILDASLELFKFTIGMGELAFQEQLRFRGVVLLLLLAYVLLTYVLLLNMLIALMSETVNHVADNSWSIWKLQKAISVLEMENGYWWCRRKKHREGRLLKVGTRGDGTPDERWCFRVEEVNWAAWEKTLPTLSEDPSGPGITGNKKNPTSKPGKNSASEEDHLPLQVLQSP
Assay: cryo-EM structure
Settings: remark: other sources report otherwise

- stoichiometry N: 4
B1: Full-length wild-type rat TRPV2 (transient receptor potential vanilloid 2), Q9WUD2 1-761 (natural protein)
chain: T1 chain

Source: publication doi:10.1101/2020.08.10.242008
